Experimental data taken from patent US20110293618A1 (MEDICAL AND BIOLOGICAL LABORATORIES, published 2011).

Tests used:
[1] = target: T1, E. coli-produced recombinant protein corresponding to aa 195-aa 461 in SEQ ID NO: 2 (human, UniProt Q96PD2 195-461); assay: ELISA on purified E. coli fragment
T1 construct: pET28a expression system; vector-encoded tag residues not described
T1 sequence: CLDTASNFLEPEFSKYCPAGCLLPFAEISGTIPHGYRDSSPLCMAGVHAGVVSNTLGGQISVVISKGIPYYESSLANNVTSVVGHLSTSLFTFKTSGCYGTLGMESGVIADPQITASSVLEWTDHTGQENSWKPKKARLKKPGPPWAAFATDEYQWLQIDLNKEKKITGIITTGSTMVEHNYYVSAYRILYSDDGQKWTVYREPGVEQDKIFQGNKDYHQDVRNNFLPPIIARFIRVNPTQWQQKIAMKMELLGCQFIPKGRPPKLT
Experimental: (§1) Each antibody was assayed by ELISA using the purified proteins prepared described above.

[2] = target: T2, E. coli-produced recombinant protein corresponding to aa 195-aa 453 in SEQ ID NO: 2 (human, UniProt Q96PD2 195-453); assay: ELISA on purified E. coli fragment
T2 construct: pET28a, BL21, urea-solubilised, TALON-purified; vector-encoded tag residues not described
T2 sequence: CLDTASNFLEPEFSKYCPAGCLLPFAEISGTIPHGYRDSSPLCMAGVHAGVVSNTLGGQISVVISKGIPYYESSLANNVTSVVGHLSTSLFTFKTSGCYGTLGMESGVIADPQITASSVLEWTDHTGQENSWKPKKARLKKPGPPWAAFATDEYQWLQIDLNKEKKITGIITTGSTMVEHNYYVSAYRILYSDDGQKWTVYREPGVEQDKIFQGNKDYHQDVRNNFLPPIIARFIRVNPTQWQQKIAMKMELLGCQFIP
Experimental: as §1

[3] = target: T3, purified partial protein containing the FA58C domain of human CLCP1 (amino acid positions 284 to 526), … (human, UniProt Q96PD2 284-526); assay: ELISA, hybridoma screening on immunogen-coated plate
T3 construct: also called partial protein containing FA58C domain; region containing FA58C; not shown: myc-His tag
T3 sequence: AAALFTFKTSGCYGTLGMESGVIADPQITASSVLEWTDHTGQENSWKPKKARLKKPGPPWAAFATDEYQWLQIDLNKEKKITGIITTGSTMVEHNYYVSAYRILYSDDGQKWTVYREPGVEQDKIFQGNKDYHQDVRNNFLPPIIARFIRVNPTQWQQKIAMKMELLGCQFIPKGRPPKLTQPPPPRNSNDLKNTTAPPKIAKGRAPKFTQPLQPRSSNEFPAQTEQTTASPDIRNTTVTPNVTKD
Excerpt: After expansion culture in HT medium [RPMI1640, HT-supplement (Invitrogen; 21060-017), Penicillin, and Streptomycin] supplemented with 15% FBS, the cells were cloned into single clones by the limiting dilution method. Eleven hybridoma clones producing anti-human CLCP1 antibody were obtained by the method described above.

[4] = target: T4, endogenous human CLCP1 in H460-LNM35 cell lysate (human, UniProt Q96PD2 67-775); assay: Western blot of H460-LNM35 lysate; almost no signal in CLCP1-knockdown cells
T4 construct: Same protein as m1 but solubilised: SDS lysate for Western blot (denatured, reduced) or NP-40 lysate for immunoprecipitation; also called endogenous CLCP1
T4 sequence: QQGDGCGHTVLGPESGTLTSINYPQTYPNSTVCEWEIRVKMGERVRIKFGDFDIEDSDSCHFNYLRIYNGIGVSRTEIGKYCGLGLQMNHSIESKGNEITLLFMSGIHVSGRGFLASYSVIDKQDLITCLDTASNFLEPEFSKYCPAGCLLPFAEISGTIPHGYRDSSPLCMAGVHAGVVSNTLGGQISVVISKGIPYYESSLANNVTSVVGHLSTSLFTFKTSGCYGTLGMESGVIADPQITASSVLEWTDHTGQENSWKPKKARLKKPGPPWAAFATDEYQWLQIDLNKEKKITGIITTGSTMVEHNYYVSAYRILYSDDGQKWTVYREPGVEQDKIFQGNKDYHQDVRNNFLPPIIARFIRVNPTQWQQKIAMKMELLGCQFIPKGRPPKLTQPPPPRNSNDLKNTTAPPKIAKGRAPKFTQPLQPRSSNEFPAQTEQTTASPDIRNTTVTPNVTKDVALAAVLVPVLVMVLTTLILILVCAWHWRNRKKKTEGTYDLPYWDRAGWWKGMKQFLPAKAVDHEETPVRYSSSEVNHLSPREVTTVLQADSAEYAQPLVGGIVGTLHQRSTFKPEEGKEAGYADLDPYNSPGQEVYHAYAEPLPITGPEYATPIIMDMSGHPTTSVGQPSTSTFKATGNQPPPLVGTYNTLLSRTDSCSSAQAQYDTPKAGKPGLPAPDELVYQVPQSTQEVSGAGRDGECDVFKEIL
Experimental: As described in the reference, Nagai H, et al., Oncogene 26: 4025-4031 (2007), a subline that constitutively expresses a CLCP1 siRNA as a short hairpin RNA (shRNA) biosynthesized in cells has been established from the high expressing CLCP1 cell line H460-LNM35. […] Western blotting was carried out using siCLCP1-3 #9 cells (CLCP1 Knockdown in FIG. 8) and H460-LNM35 cells.
2×10⁶ cells of the high expressing CLCP1 cell line H460-LNM35 and siCLCP1-3 #9 line were each suspended in lysis buffer [50 mM Tris (pH 6.8), 5% glycerol, 2% SDS], and the protein concentration was determined using the DC Protein Assay Kit (Bio-Rad). Then, 2-mercaptoethanol was added at 5.3% to the lysates. After heating, 20 μg each of the lysates were subjected to SDS-PAGE, followed by Western blotting with each of the antibodies and an HRP-labeled anti-mouse or anti-rabbit antibody. […] Meanwhile, there was almost no detectable signal in siCLCP1-3 #9 cells.

[5] = target: T5, human CLCP1 (CUB, LCCL-homology, coagulation factor V/VIII homology domains protein), full length, on cells (human, UniProt Q96PD2 67-775); assay: flow cytometry on H460-LNM35 cells, antibody 5 ug/ml, PE anti-mouse IgG
T5 construct: also called ESDN; DCBLD2
T5 sequence: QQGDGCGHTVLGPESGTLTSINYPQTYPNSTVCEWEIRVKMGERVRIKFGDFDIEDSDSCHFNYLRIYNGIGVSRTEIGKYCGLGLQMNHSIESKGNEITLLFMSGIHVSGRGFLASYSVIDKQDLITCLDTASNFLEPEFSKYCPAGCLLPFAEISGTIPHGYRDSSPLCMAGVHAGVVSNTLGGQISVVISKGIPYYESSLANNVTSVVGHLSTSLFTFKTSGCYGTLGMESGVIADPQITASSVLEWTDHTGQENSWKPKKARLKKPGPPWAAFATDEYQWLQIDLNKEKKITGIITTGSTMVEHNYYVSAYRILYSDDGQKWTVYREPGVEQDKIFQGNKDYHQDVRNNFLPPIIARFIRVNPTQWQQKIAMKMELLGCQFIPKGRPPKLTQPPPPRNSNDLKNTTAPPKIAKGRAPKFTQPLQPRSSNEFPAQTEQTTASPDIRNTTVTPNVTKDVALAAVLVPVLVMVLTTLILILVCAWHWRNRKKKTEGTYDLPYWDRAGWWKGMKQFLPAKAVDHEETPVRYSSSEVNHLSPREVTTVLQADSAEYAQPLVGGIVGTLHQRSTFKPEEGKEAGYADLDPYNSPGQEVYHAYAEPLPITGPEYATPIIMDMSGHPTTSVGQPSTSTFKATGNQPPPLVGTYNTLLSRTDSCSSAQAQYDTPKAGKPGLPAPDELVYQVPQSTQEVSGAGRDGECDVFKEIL
Experimental: The antibodies prepared as described above were assessed for the reactivity to endogenous human CLCP1 by testing their reactivity to cells of high CLCP1-expressing line H460-LNM35 according to the following method. Anti-human CLCP1 antibody was purified from culture supernatant of each hybridoma clone by a conventional affinity purification method using Protein A-Sepharose. The purified antibodies were each diluted to 5 μg/ml, and the reaction intensity to H460-LNM35 was assessed by flow cytometry. In this assay, the anti-CLCP1 monoclonal antibody bound on the cell surface was detected by using a phycoerythrin-labeled anti-mouse IgG antibody. All samples were processed under the same conditions.

[6] = target: T5, human CLCP1 (CUB, LCCL-homology, …); assay: flow cytometry on NCI-H460-LNM35 cells

B1: 6AA-17-2 (antibody, V domains shown)
VH: EVQLQQSGAELVRPGALVKLSCKASGFNIKDYYMHWVKQRPEQGLEWIGWIDPENDNTIYDPKFQGKASITADTSSNTAYLHLSSLTSEDTAVYYCARAYGYDDYYAMEYWGQGTSVTVSS
VL: NIMMTQSPSSLAVSAGEKVTMSCKSSQSVLYSSNQKNYLAWYQQKPGQSPKLLIYWTSTRESGVPDRFTGSGSGTDFTLTISSVQAEDLAIYYCHQYLYSYTFGGGTKL
notes: Mouse monoclonal raised against the partial protein containing the FA58C domain; also called Antibody 3
B1: no binding [1]; no binding [2].

B2: FA17-9 (antibody, V domains shown)
VH: EVQLQQSGPELVKPGASVKMSCKASGYTFTTYVMHWVKQKPGQGLEWIGYINPYNDGTKYNEKFKGKATLTSDKSSSTAYMELSSLTSEDSAVYYCARGANYYGSSYNWSFDVWGAGTTVTVSS
VL: DIQMTQSPSSLSASLGGKVTITCKASQDINKYIAWYQHKPGEGPRLLIHYTSTLQPGIPSRFSGSGSGRDYSFSISNLEPEDIATYYCLQYDYLWTFGGGTKL
notes: Mouse monoclonal; also called antibody No. FA17-9; Antibody 1
B2: binds [3]; binds [4]; binds [5].

B3: chimeric FA17-9 antibody (antibody, V domains shown)
VH: EVQLQQSGPELVKPGASVKMSCKASGYTFTTYVMHWVKQKPGQGLEWIGYINPYNDGTKYNEKFKGKATLTSDKSSSTAYMELSSLTSEDSAVYYCARGANYYGSSYNWSFDVWGAGTTVTVSS
VL: DIQMTQSPSSLSASLGGKVTITCKASQDINKYIAWYQHKPGEGPRLLIHYTSTLQPGIPSRFSGSGSGRDYSFSISNLEPEDIATYYCLQYDYLWTFGGGTKL
notes: Variable regions of FA17-9 joined to constant regions derived from human IgG1 (LONZA vector)
B3: binds [6].
